B1: AMX(453)_F7 (ssDNA)
DNA: TCCCGAGCGATACTGTCTAGGTTGGGTAGGGTGGTGGCTGAGGATCGATC
B2: AMX(453)_F11 (ssDNA)
DNA: B1 DNA with C13T
B3: AMX(453)_B10 (ssDNA)
DNA: TCCCATCGATCTGGGGTAGTTTTATTGGGTCGGGTGGCTGAGGATCGATC
B4: AMX(454)_H3 (ssDNA)
DNA: B3 DNA with C31T
B5: AMX(454)_D11 (ssDNA)
DNA: TCCCTGCTTGTCGATATTTTAGGGTTGGTGTGGGTGGCTGAGGATCGATC
B6: AMX(454)_B9 (ssDNA)
DNA: CCCGACTGATTCTTACCTTAGGGATGGTGTGGGTGGCTGAGGATCGATC
B7: AMX(453)_G5 (ssDNA)
DNA: TCCCATGATCGTTAGATTCAGGGATGGTGTGGGTGGCTGAGGATCGATC
B8: AMX(453)_A9 (ssDNA)
DNA: ATCCCAATGTTGAGACGAGTAGGTGTGGGTAGGGTGGCTGAGGATCGATC
B9: AMX(454)_B12 (ssDNA)
DNA: TCCCTGGTTTCGATCTGTTTTGGTTGGTCTGGGTGGCTGAGGATCGATC
B10: AMX(454)_F9 (ssDNA)
DNA: TCCCTGCATCGAGCCTCTATGGGATGGTTTGGGTGGCTGAGGATCGATC
B11: AMX(453)_C10 (ssDNA)
DNA: TCCTGATTGATCTGAGGGGTATTGTTGGCGTGGGTGGCTGAGGATCGATC
B12: ARC2191 (ssDNA)
DNA: CTGCCTAGGTTGGGTAGGGTGGTGGCAGTTT
B13: ARC2189 (ssDNA)
DNA: TTTCCTCAGGGATGGTGTGGGTGGCTGAGGTTT
B14: ARC2190 (ssDNA)
DNA: TTTTTTCCTCAGGGATGGTGTGGGTGGCTGAGGTTTTTT
B15: ARC2188 (ssDNA)
DNA: TTTTTTCCTCAGGGATGGTGTGGGTGGCTGAGG
B16: AMX(395)_A11 (ssDNA)
DNA: TCCCGTAATCGAGCCTGGTATTGTTGGCCTGGGTGGCTGAGGATCGATC
B17: AMX(395)_F3 (ssDNA)
DNA: TCCCATAGTATCGAGCCGATTGGATGGTCTGGGTGGCTGAGGATCGATC
B18: AMX(395)_E11 (ssDNA)
DNA: TCCCGGTCGTATTAGTGTGGGTGGTGTAGGGTGGTGGCTGAGGATCGATC
B19: AMX(395)_E2 (ssDNA)
DNA: TCCTATCGATACGGGGTCTTCTATTGGGTCGGGGTGGCTGAGGATCGATC
B20: AMX(395)_G11 (ssDNA)
DNA: TCCCAGAGCGGAAATCCTCAGGGGTGGGGTGGGTGGCTGAGGATCGATC
B21: AMX(395)_E4 (ssDNA)
DNA: TCCCGACTTCGATTACTCAGGGGTGGCTGTGGGTGGCTGAGGATCGATC
B22: AMX(395)_D5 (ssDNA)
DNA: TCCCGAGTGTCATATCATCAGAGGTTGGAGTGGGTGGCTGAGGATCGATC
B23: AMX(395)_H9 (ssDNA)
DNA: TCCCGGTAGCGATCCAGAGAGGGATGGGGTGGGTGGCTGAGGATCGATC
B24: AMX(395)_E7 (ssDNA)
DNA: TCCCGGTCGAGTCCTCACGAAGGGTTGGGAGGGTGGCTGAGGATCGATC
B25: AMX(395)_B5 (ssDNA)
DNA: TCCCGCAATCGGTACTCAGGAGGATGGTTGGGGTGGCTGAGGATCGATC
B26: AMX(395)_E8 (ssDNA)
DNA: B7 DNA with T13C
B27: AMX(395)_G2 (ssDNA)
DNA: TCCCACGGTCCTCACCTAGGATGGTTAGGGTGGTGGCTGAGGATCGATC
B28: AMX(399)_H3 (ssDNA)
DNA: TCCCAATCGGTCCTGGTAATATATTGGTCGGGGTGGCTGAGGATCGATC
B29: AMX(398)_A1 (ssDNA)
DNA: TCCGATTGACGTGGTGGGTTACTGGTTTGGGTGGCTGAGGATCGATC
B30: AMX(398)_C8 (ARC2027) (ssDNA)
DNA: TCCTGAGGGATCAGGCTAGGTTGGGTAGGGTGGTGGCTGAGGATCGATC
B31: AMX(399)_D5 (ssDNA)
DNA: TCCCGTTCGAGTCCTGGTGTTTTATTGGCCTGGGTGGCTGAGGATCGATC
B32: AMX(399)_F5 (ssDNA)
DNA: TCCCTAGATCGGGTCCTGGTAGTGTTTCTGGGTGGCTGAGGATCGATC
B33: ARC2177 (ssDNA)
DNA: GACTACCTCAGGGATGGTGTGGGTGGCTGAGGTAGTC
B34: ARC2181 (ssDNA)
DNA: ACTAACTGCCTAGGTTGGGTAGGGTGGTGGCAGTTAGT
B35: ARC2183 (ssDNA)
DNA: CCTCAGGGTTGGTGTGGTTGGCTGAGG
B36: ARC2176 (ssDNA)
DNA: ACTACCTCAGGGATGGTGTGGGTGGCTGAGGTAGT
B37: ARC2184 (ssDNA)
DNA: ACTGCCTAGGTTGGTGTGGTTGGTGGCAGT
B38: ARC2173 (ssDNA)
DNA: ACCTCAGGGATGGTGTGGGTGGCTGAGGT
B39: ARC2174 (ssDNA)
DNA: TACCTCAGGGATGGTGTGGGTGGCTGAGGTA
B40: ARC2185 (ssDNA)
DNA: CCTCAGGGATGGTGTGGGTGGCTGAGGTTT
B41: ARC2178 (ssDNA)
DNA: AACTGCCTAGGTTGGGTAGGGTGGTGGCAGTT
B42: ARC2175 (ssDNA)
DNA: B13 DNA with T1C, T3A, T32A, T33G
B43: ARC2182 (ssDNA)
DNA: GACTAACTGCCTAGGTTGGGTAGGGTGGTGGCAGTTAGTC
B44: ARC2186 (ssDNA)
DNA: CCTCAGGGATGGTGTGGGTGGCTGAGGTTTTTT
B45: ARC2180 (ssDNA)
DNA: CTAACTGCCTAGGTTGGGTAGGGTGGTGGCAGTTAG
B46: ARC2179 (ssDNA)
DNA: TAACTGCCTAGGTTGGGTAGGGTGGTGGCAGTTA

Numbering of substitutions follows the chain as printed.

As a reminder, the Kd is the concentration at which binding is half-saturated.

For the first data set, the target named is T1, thrombin (endogenous, clotting assay in plasma or whole blood) (Homo sapiens, UniProt P00734;P00734 P00734:328-363,P00734:364-622). Put plainly: inhibition; PT at 10 uM.
Conditions: not given
In turn, B1 showed an activity of 28.6 s.

In turn, B2 showed an activity of 65.8 s.

With B3, the activity is 24.8 s.

B4 gave an activity of 35.4 s.

Take B5: the activity was 43.4 s.

Turning to B6, the activity was 32 s.

Consider B7, for which the activity came to 29.3 s.

Regarding B8, the activity was found to be 29.3 s.

In turn, B9 gave an activity of 21.9 s.

B10 yielded an activity of 25 s.

Consider B11, for which the activity came out at 104 s.

In another data set the target is T1, thrombin (endogenous, clotting assay in …). Put plainly: inhibition; ACT at 10 uM aptamer.
Conditions: not given
The molecule B12 gave an activity of 453 s.

In turn, B13 returned an activity of 410 s.

Molecule B14 had an activity of 389 s.

For B15, the activity is 426 s.

In another data set the target is T2, thrombin (alpha-thrombin) (Homo sapiens, UniProt P00734;P00734 P00734:315-363,P00734:364-622). Put plainly: filter; 10 nM thrombin.
Conditions: not given
Regarding B16, the binding signal amounted to 35.8 % bound.

Molecule B17 returned a binding signal of 6.29 % bound.

B18: the binding signal came out at 33.7 % bound.

In turn, B19 registered a binding signal of 6.51 % bound.

In turn, B20 showed a binding signal of 21.9 % bound.

The molecule B21 yielded a binding signal of 24 % bound.

Molecule B22 yielded a binding signal of 13.4 % bound.

On to B23, for which the binding signal came to 9.61 % bound.

Take B24: the binding signal is 9.12 % bound.

The molecule B25 returned a binding signal of 17.1 % bound.

Molecule B26 returned a binding signal of 21.3 % bound.

For the molecule B27, the binding signal stood at 33.1 % bound.

In the next data set the target is T2, thrombin (alpha-thrombin). The data set can be described thus: filter; DPBS Ca2+ Mg2+, 0.1 mg/ml BSA.
Conditions: not given
With B28, the affinity, expressed as Kd, was 1.93 nM.

Turning to B29, the Kd turned out to be 0.3 nM.

The molecule B30 came in with a dissociation constant Kd of 0.42 nM. The Kd values of the last two molecules are within 1.5-fold of each other.

In turn, B31 yielded a Kd of 2.26 nM.

For B32, the affinity, expressed as Kd, was 2.35 nM. This Kd and that of the molecule before are within 1.5-fold of each other.

A further data set addresses prothrombin (Homo sapiens, UniProt P00734 P00734:44-622). The data set can be described thus: filter; 50 nM prothrombin. Conditions: tags: Athens Research. The method in brief: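 Trace 5′-³²P-labeled RNA clones incubated ±50 nM prothrombin with 0.1 mg/ml BSA in 1×DPBS (with Ca²⁺/Mg²⁺), 30 min. Bound RNA captured on nitrocellulose, free RNA on nylon; filters quantified by phosphorimaging. Single-point screen.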
Take B28: the binding signal was 45.5 % bound.

With B29, the binding signal was found to be 18 % bound.

For the molecule B30, the binding signal was found to be 48.5 % bound.

In turn, B31 yielded a binding signal of 23.8 % bound.

As for B32, the binding signal was found to be 49.3 % bound.

A further data set concerns the target T1, thrombin (endogenous, clotting assay in …). Put plainly: inhibition; ACT at 10 uM.
Conditions: not given
On to B33, for which the activity turned out to be 401 s.

With B34, the activity is 478 s.

Turning to B35, the activity turned out to be 354 s.

The molecule B36 registered an activity of 394 s.

On to B37, for which the activity was found to be 368 s.

Consider B38, for which the activity was found to be 415 s.

Take B39: the activity turned out to be 416 s.

As to B40, the activity came out at 384 s.

In turn, B41 yielded an activity of 429 s.

B42 registered an activity of 392 s.

In turn, B43 came in with an activity of 518 s.

The molecule B44 showed an activity of 408 s.

As to B45, the activity is 516 s.

B46: the activity was 462 s.

Values taken from US20090221680, “Aptamers that bind thrombin with high affinity” (published 2009).
